These results are taken from patent US20230241168A1 (ALPINE IMMUNE SCIENCES, published 2023).

Assay [1] addresses T1, recombinant human APRIL (human, UniProt O75888 105-250, limits assumed).
T1 sequence (looked up): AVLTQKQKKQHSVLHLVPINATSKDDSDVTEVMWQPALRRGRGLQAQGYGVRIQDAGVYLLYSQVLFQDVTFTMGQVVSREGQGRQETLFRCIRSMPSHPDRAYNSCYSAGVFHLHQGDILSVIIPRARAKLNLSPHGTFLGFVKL
The assay is described as follows: cell-based or functional assay.

The target of assay [2] is recombinant human BAFF (human, UniProt Q9Y275 134-285). Nature of the assay: cell-based or functional assay.

B1: BCMA 357 (G4S)3 CTLA-4 92 GSG4S Fc (Fc fusion)
chain: LQMAGQCSQNEYFDSLLYACIPCQLRCSSNTPPLTCQRYCNASVTNSVKGTNAGGGGSGGGGSGGGGSGGGGSKAMHVAQPAVVLASSRGIASFVCEYASPWKATEVRVTVLRQADSQVTEVCAATYMMGSELTFPDDSICTGTSSGNQVNLTIRGLRAMDTGLYICKVEQMYPPPYLLGIGNGTQIYVIDPEPCPDSDGSGGGGSEPKSSDKTHTCPPCPAPEAEGAPSVFLFPPKPKDTLMISRTPEVTCVVVDVSHEDPEVKFNWYVDGVEVHNAKTKPREEQYNSTYRVVSVLTVLHQDWLNGKEYKCKVSNKALPAPIEKTISKAKGQPREPQVYTLPPSRDELTKNQVSLTCLVKGFYPSDIAVEWESNGQPENNYKTTPPVLDSDGSFFLYSKLTVDKSRWQQGNVFSCSVMHEALHNHYTQKSLSLSPG
With B1, in assay [1], the “IC50 (nM) APRIL” value worked out at 0.689 nM and the “IC50 APRIL (Δ Parental vTD)” value was 0.7 ratio. For the same molecule, in assay [2], the “IC50 (nM) BAFF” value amounted to 0.396 nM and the “IC50 BAFF (Δ Parental vTD)” value was determined as 0.4 ratio.

B2: BCMA 381 GSG4S-Fc-(G4S)4-CTLA-4 186 (Fc fusion)
chain: LQMAGQCSQNEYFDALLYACIPCQLRCSSNTPPLTCQQYCNASVTNSVKGTNAGSGGGGSEPKSSDKTHTCPPCPAPEAEGAPSVFLFPPKPKDTLMISRTPEVTCVVVDVSHEDPEVKFNWYVDGVEVHNAKTKPREEQYNSTYRVVSVLTVLHQDWLNGKEYKCKVSNKALPAPIEKTISKAKGQPREPQVYTLPPSRDELTKNQVSLTCLVKGFYPSDIAVEWESNGQPENNYKTTPPVLDSDGSFFLYSKLTVDKSRWQQGNVFSCSVMHEALHNHYTQKSLSLSPGGGGGSGGGGSGGGGSGGGGSKAMHVAQPAVVLASSRGIASFVCEYASPWKATEVRVTVLRQADSQVTEVCAATYMMGNELTFLDDSICTGTSSGNQVNLTIQGLRAMDTGLYICKVEQMYPPPYLLGIGNGTQIYVIDPEPCPDSD
For B2, the “IC50 (nM) APRIL” value in assay [1] stood at 0.876 nM. Also, the “IC50 (nM) BAFF” value in assay [2] came out at 0.0617 nM.

B3: BCMA 357 GSG4S Fc (G4S)3 CTLA-4 92 (Fc fusion)
chain: LQMAGQCSQNEYFDSLLYACIPCQLRCSSNTPPLTCQRYCNASVTNSVKGTNAGSGGGGSEPKSSDKTHTCPPCPAPEAEGAPSVFLFPPKPKDTLMISRTPEVTCVVVDVSHEDPEVKFNWYVDGVEVHNAKTKPREEQYNSTYRVVSVLTVLHQDWLNGKEYKCKVSNKALPAPIEKTISKAKGQPREPQVYTLPPSRDELTKNQVSLTCLVKGFYPSDIAVEWESNGQPENNYKTTPPVLDSDGSFFLYSKLTVDKSRWQQGNVFSCSVMHEALHNHYTQKSLSLSPGGGGGSGGGGSGGGGSGGGGSKAMHVAQPAVVLASSRGIASFVCEYASPWKATEVRVTVLRQADSQVTEVCAATYMMGSELTFPDDSICTGTSSGNQVNLTIRGLRAMDTGLYICKVEQMYPPPYLLGIGNGTQIYVIDPEPCPDSD
Regarding B3, in assay [1], the “IC50 (nM) APRIL” value worked out at 0.582 nM and the “IC50 APRIL (Δ Parental vTD)” value came out at 0.6 ratio. Moreover, in assay [2], the “IC50 (nM) BAFF” value amounted to 0.415 nM and the “IC50 BAFF (Δ Parental vTD)” value came to 0.4 ratio.

B4: Fc (G4S)2 BCMA (357) (Fc fusion)
chain: EPKSSDKTHTCPPCPAPEAEGAPSVFLFPPKPKDTLMISRTPEVTCVVVDVSHEDPEVKFNWYVDGVEVHNAKTKPREEQYNSTYRVVSVLTVLHQDWLNGKEYKCKVSNKALPAPIEKTISKAKGQPREPQVYTLPPSRDELTKNQVSLTCLVKGFYPSDIAVEWESNGQPENNYKTTPPVLDSDGSFFLYSKLTVDKSRWQQGNVFSCSVMHEALHNHYTQKSLSLSPGGGGGSGGGGSLQMAGQCSQNEYFDSLLYACIPCQLRCSSNTPPLTCQRYCNASVTNSVKGTNA
Take B4: in assay [1], the “IC50 (nM) APRIL” value is 0.696 nM and the “IC50 APRIL (Δ Parental vTD)” value was determined as 1 ratio. Moreover, in assay [2], the “IC50 (nM) BAFF” value came to 5.44 nM and the “IC50 BAFF (Δ Parental vTD)” value is 1 ratio.

B5: CTLA-4 113 GSG4S Fc (G4S)4 TACI 535 (68-110) (Fc fusion)
chain: KAMHVAQPAVVFASSHGIASFVCEYASPWKATEVRVTVLRQADSQVTEVCAATYMTGNELTFLDDSICTGTSSGNQVNLTIQGLRAMDTGLYICKVEQMYPPPYLLGIGNGTQIYVIDPEPCPDSDGSGGGGSEPKSSDKTHTCPPCPAPEAEGAPSVFLFPPKPKDTLMISRTPEVTCVVVDVSHEDPEVKFNWYVDGVEVHNAKTKPREEQYNSTYRVVSVLTVLHQDWLNGKEYKCKVSNKALPAPIEKTISKAKGQPREPQVYTLPPSRDELTKNQVSLTCLVKGFYPSDIAVEWESNGQPENNYKTTPPVLDSDGSFFLYSKLTVDKSRWQQGNVFSCSVMHEALHNHYTQKSLSLSPGGGGGSGGGGSGGGGSGGGGSSLSCRKEQGKFYDHLLGDCISCASICGQHPKQCAYFCENKLRS
Regarding B5, the “IC50 (nM) APRIL” value in assay [1] was 8.63 nM. In assay [2], the “IC50 (nM) BAFF” value amounted to 0.506 nM and the “IC50 BAFF (Δ Parental vTD)” value stood at 0.4 ratio.

B6: CTLA-4 92 (G4S)4 BCMA 357 GSG4S Fc (Fc fusion)
chain: KAMHVAQPAVVLASSRGIASFVCEYASPWKATEVRVTVLRQADSQVTEVCAATYMMGSELTFPDDSICTGTSSGNQVNLTIRGLRAMDTGLYICKVEQMYPPPYLLGIGNGTQIYVIDPEPCPDSDGGGGSGGGGSGGGGSGGGGSLQMAGQCSQNEYFDSLLYACIPCQLRCSSNTPPLTCQRYCNASVTNSVKGTNAGSGGGGSEPKSSDKTHTCPPCPAPEAEGAPSVFLFPPKPKDTLMISRTPEVTCVVVDVSHEDPEVKFNWYVDGVEVHNAKTKPREEQYNSTYRVVSVLTVLHQDWLNGKEYKCKVSNKALPAPIEKTISKAKGQPREPQVYTLPPSRDELTKNQVSLTCLVKGFYPSDIAVEWESNGQPENNYKTTPPVLDSDGSFFLYSKLTVDKSRWQQGNVFSCSVMHEALHNHYTQKSLSLSPG
On to B6, for which, in assay [1], the “IC50 (nM) APRIL” value came to 0.63 nM and the “IC50 APRIL (Δ Parental vTD)” value worked out at 0.6 ratio. Further, in assay [2], the “IC50 (nM) BAFF” value worked out at 3.75 nM and the “IC50 BAFF (Δ Parental vTD)” value turned out to be 3.8 ratio.

B7: TACI 542 GSG4S Fc (G4S)4 (CTLA-4 186) (Fc fusion)
chain: SLSCRKEEGKFYDHLLQDCISCASICGQHPKQCAYFCENKLRSGSGGGGSEPKSSDKTHTCPPCPAPEAEGAPSVFLFPPKPKDTLMISRTPEVTCVVVDVSHEDPEVKFNWYVDGVEVHNAKTKPREEQYNSTYRVVSVLTVLHQDWLNGKEYKCKVSNKALPAPIEKTISKAKGQPREPQVYTLPPSRDELTKNQVSLTCLVKGFYPSDIAVEWESNGQPENNYKTTPPVLDSDGSFFLYSKLTVDKSRWQQGNVFSCSVMHEALHNHYTQKSLSLSPGGGGGSGGGGSGGGGSGGGGSKAMHVAQPAVVLASSRGIASFVCEYASPWKATEVRVTVLRQADSQVTEVCAATYMMGNELTFLDDSICTGTSSGNQVNLTIQGLRAMDTGLYICKVEQMYPPPYLLGIGNGTQIYVIDPEPCPDSD
For B7, the “IC50 (nM) APRIL” value in assay [1] came to 1.2 nM. The “IC50 (nM) BAFF” value in assay [2] turned out to be 0.179 nM.

B8: CTLA 4 165 GSG4S Fc (G4S)2 TACI 516 (Fc fusion)
chain: KAMHVAQPAVVLASSRGIASFVCEYASPGKATEVRVTVLRQADSQVTEVCAASYMMGNELTFPDDSICTGTSSGNQVNLTIQGLRAMDTGLYICKVEQMYPPPYYLGIGNGTQIYVIDPEPCPDSDGSGGGGSEPKSSDKTHTCPPCPAPEAEGAPSVFLFPPKPKDTLMISRTPEVTCVVVDVSHEDPEVKFNWYVDGVEVHNAKTKPREEQYNSTYRVVSVLTVLHQDWLNGKEYKCKVSNKALPAPIEKTISKAKGQPREPQVYTLPPSRDELTKNQVSLTCLVKGFYPSDIAVEWESNGQPENNYKTTPPVLDSDGSFFLYSKLTVDKSRWQQGNVFSCSVMHEALHNHYTQKSLSLSPGGGGGSGGGGSVAMRSCPEEQYWDPLLGTCMSCKTICNHQSQRTCAAFCRSLSCRKEQGKFYDHLLRDCISCASICGQHPKQCAYFCENKLRS
On to B8, for which, in assay [1], the “IC50 (nM) APRIL” value came out at 4.64 nM and the “IC50 APRIL (Δ Parental vTD)” value was 0.9 ratio. Also, in assay [2], the “IC50 (nM) BAFF” value turned out to be 0.928 nM and the “IC50 BAFF (Δ Parental vTD)” value was 0.5 ratio.

B9: CTLA 4 92 GSG4S Fc (G4S)2 TACI 516 (Fc fusion)
chain: KAMHVAQPAVVLASSRGIASFVCEYASPWKATEVRVTVLRQADSQVTEVCAATYMMGSELTFPDDSICTGTSSGNQVNLTIRGLRAMDTGLYICKVEQMYPPPYLLGIGNGTQIYVIDPEPCPDSDGSGGGGSEPKSSDKTHTCPPCPAPEAEGAPSVFLFPPKPKDTLMISRTPEVTCVVVDVSHEDPEVKFNWYVDGVEVHNAKTKPREEQYNSTYRVVSVLTVLHQDWLNGKEYKCKVSNKALPAPIEKTISKAKGQPREPQVYTLPPSRDELTKNQVSLTCLVKGFYPSDIAVEWESNGQPENNYKTTPPVLDSDGSFFLYSKLTVDKSRWQQGNVFSCSVMHEALHNHYTQKSLSLSPGGGGGSGGGGSVAMRSCPEEQYWDPLLGTCMSCKTICNHQSQRTCAAFCRSLSCRKEQGKFYDHLLRDCISCASICGQHPKQCAYFCENKLRS
With B9, in assay [1], the “IC50 (nM) APRIL” value was found to be 6.75 nM and the “IC50 APRIL (Δ Parental vTD)” value came to 1.3 ratio. Moreover, in assay [2], the “IC50 (nM) BAFF” value came to 1.73 nM and the “IC50 BAFF (Δ Parental vTD)” value is 1 ratio.

B10: CTLA-4 165 GSG4S Fc (G4S)2 BCMA 357 (Fc fusion)
chain: KAMHVAQPAVVLASSRGIASFVCEYASPGKATEVRVTVLRQADSQVTEVCAASYMMGNELTFPDDSICTGTSSGNQVNLTIQGLRAMDTGLYICKVEQMYPPPYYLGIGNGTQIYVIDPEPCPDSDGSGGGGSEPKSSDKTHTCPPCPAPEAEGAPSVFLFPPKPKDTLMISRTPEVTCVVVDVSHEDPEVKFNWYVDGVEVHNAKTKPREEQYNSTYRVVSVLTVLHQDWLNGKEYKCKVSNKALPAPIEKTISKAKGQPREPQVYTLPPSRDELTKNQVSLTCLVKGFYPSDIAVEWESNGQPENNYKTTPPVLDSDGSFFLYSKLTVDKSRWQQGNVFSCSVMHEALHNHYTQKSLSLSPGGGGGSGGGGSLQMAGQCSQNEYFDSLLYACIPCQLRCSSNTPPLTCQRYCNASVTNSVKGTNA
Regarding B10, in assay [1], the “IC50 (nM) APRIL” value was 0.606 nM and the “IC50 APRIL (Δ Parental vTD)” value was determined as 0.9 ratio. Besides, in assay [2], the “IC50 (nM) BAFF” value is 11.8 nM and the “IC50 BAFF (Δ Parental vTD)” value was found to be 2.2 ratio.

B11: CTLA-4 113 GSG4S Fc (G4S)4 TACI 688 (29-110) (Fc fusion)
chain: KAMHVAQPAVVFASSHGIASFVCEYASPWKATEVRVTVLRQADSQVTEVCAATYMTGNELTFLDDSICTGTSSGNQVNLTIQGLRAMDTGLYICKVEQMYPPPYLLGIGNGTQIYVIDPEPCPDSDGSGGGGSEPKSSDKTHTCPPCPAPEAEGAPSVFLFPPKPKDTLMISRTPEVTCVVVDVSHEDPEVKFNWYVDGVEVHNAKTKPREEQYNSTYRVVSVLTVLHQDWLNGKEYKCKVSNKALPAPIEKTISKAKGQPREPQVYTLPPSRDELTKNQVSLTCLVKGFYPSDIAVEWESNGQPENNYKTTPPVLDSDGSFFLYSKLTVDKSRWQQGNVFSCSVMHEALHNHYTQKSLSLSPGGGGGSGGGGSGGGGSGGGGSVAMRSCPEEQYWDPLLGTCMSCKTICNHQSQRTCAAFCRSLSCRKEQGKFYDHLLGDCISCASICGQHPKQCAYFCENKLRS
As to B11, in assay [1], the “IC50 (nM) APRIL” value worked out at 8.25 nM and the “IC50 APRIL (Δ Parental vTD)” value amounted to 1.4 ratio. For the same molecule, in assay [2], the “IC50 (nM) BAFF” value was 0.566 nM and the “IC50 BAFF (Δ Parental vTD)” value stood at 0.4 ratio.
